Consider 2 substances from US7312060.

The target in assay [1] is APC segment 3 (amino acids 1098-1696), wild type, with N-terminal VSV-G tag and C-terminal P53-derived tag (Vesicular Stomatitis Virus; human) (UniProt P25054). Kind of assay: HTS-PTT ELISA, 0.1 ul of translation mix per well. Background: ELISA stands for enzyme-linked immunosorbent assay.
Assay [2] shares this target. Kind of assay: HTS-PTT ELISA on NeutrAvidin plate, HRP chemiluminescence.
For assay [3] the target is unchanged. Briefly: HTS-PTT ELISA on NeutrAvidin plate, alkaline phosphatase chemiluminescence.

Sequence of UniProt P25054 (P25054 other isoform, or with tags, fused parts or gaps limits assumed): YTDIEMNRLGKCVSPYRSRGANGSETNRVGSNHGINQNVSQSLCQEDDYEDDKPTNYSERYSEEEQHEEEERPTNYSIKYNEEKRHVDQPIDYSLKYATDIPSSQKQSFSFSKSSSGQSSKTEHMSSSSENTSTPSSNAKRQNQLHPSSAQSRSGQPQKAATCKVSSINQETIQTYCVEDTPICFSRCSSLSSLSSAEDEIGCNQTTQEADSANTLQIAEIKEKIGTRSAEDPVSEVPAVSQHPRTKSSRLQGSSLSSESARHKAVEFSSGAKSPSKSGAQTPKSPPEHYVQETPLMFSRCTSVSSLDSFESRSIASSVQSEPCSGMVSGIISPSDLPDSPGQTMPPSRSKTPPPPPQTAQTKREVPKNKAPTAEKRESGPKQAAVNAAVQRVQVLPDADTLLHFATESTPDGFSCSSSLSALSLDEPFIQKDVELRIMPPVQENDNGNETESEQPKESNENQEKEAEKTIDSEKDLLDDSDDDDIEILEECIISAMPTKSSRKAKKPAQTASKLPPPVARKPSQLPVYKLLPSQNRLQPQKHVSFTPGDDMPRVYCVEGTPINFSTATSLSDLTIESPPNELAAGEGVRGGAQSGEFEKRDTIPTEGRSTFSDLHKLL

For the substance “anti-VSV-G-HRP (Roche Applied Sciences) (antibody)”, the signal-to-noise ratio in assay [1] was 10. The same substance returned a signal over background (fold over background) in assay [2] of 400.

For “anti-p53-alkaline phosphatase (Santa Cruz Biotechnology) (antibody)”, in assay [1], the signal-to-noise ratio came out at 30. The substance further returned a signal over background (fold over background) in assay [3] of 100.
